Results on one molecule are retold here after patent publication US20030180744A1 (published 2003).

The target of assay [1] is T1, hKGF receptor present in the PC-3 plasma membrane extracts (UniProt P21802-3 22-822, limits assumed).
T1 construct: A crude detergent extract, not a purified protein; Two complexes (C1, C2) were seen; also called component found in the PC-3 membrane extracts
As to the kind of experiment: gel shift competition: unlabeled hKGF against 125I-hKGF with PC-3 plasma membrane extract. As to the method:
(§1) For electrophoretic mobility shift gels, about 3×10⁷ PC-3 cells were gently spun and washed with PBS and then lysed by mixing with equal volume of lysis buffer containing 40 mM Hepes, pH 7.4, 150 mM NaCl, 20% glycerol, 2% triton X-100, 0.1% sodium azide, 3 mM MgCl₂, 3 mM EGTA, 2 μM aprotinin, 2 μM leupeptin, 2 mM PMSF, and 400 μM sodium orthovanadate. Following 15 min incubation on ice the extract was spun at 11,000 g at 4° C. for 30 min to remove debris and nuclei and the supernatant was aliquoted and stored at −70° C. […] Following a 10 min incubation at room temperature, 6× loading dye was added to achieve 1× concentration, and the samples were loaded onto a 5% or 10% native TBE polyacrylamide gel. The gel was prerun at room temperature at 100 Volts. Following loading, the gel was run at 200 Volts for 5 min and then at 100 Volts for 30-60 min at room temperature. The radioactive bands were then visualized by autoradiography.

In assay [2] the target is T1, hKGF receptor present in the PC-3 …. As to the kind of experiment: native gel electrophoretic mobility shift of 125I-hKGF by PC-3 plasma membrane extract. As to the method:
as §1

T1 sequence (P21802 other isoform, or with tags, fused parts or gaps limits assumed): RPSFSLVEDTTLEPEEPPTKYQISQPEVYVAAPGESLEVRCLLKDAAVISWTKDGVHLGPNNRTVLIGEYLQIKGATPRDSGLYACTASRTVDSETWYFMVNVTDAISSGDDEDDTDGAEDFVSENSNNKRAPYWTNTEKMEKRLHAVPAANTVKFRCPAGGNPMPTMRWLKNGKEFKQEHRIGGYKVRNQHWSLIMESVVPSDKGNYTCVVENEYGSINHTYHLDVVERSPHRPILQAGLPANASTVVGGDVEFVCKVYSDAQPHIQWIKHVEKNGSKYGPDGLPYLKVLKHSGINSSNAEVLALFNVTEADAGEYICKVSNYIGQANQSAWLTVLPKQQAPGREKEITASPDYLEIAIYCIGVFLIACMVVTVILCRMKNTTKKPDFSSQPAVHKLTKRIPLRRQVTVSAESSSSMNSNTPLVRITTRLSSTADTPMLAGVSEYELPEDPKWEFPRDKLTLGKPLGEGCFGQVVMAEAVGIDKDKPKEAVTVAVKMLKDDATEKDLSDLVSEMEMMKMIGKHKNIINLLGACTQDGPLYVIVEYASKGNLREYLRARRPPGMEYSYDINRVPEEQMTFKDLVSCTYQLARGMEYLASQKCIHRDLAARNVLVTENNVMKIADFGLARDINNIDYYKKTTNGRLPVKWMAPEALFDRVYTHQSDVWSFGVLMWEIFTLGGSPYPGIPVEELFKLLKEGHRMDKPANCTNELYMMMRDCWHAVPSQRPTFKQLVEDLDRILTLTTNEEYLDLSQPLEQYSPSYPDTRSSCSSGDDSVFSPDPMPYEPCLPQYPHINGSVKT

B1: Recombinant human Keratinocyte Growth Factor (hKGF) (ligand, UniProt P21781 32-194, looked up)
chain: CNDMTPEQMATNVNCSSPERHTRSYDYMEGGDIRVRRLFCRTQWYLRIDKRGKVKGTQEMKNNYNIMEIRTVAVGIVAIKGVESEFYLAMNKEGKLYAKKECNEDCNFKELILENHYNTYASAKWTHNGGEMFVALNQKGIPVRGKKTKKEQKTAHFLPMAIT
notes: also called FGF-7
As for B1, the IC50 in assay [1] turned out to be 70 nM. For the same molecule, the Kd in assay [2] was around 8 nM.
